The text below walks through data of PMC5615199, “Structural Basis for EarP-Mediated Arginine Glycosylation of Translation Elongation Factor EF-P” (mBio, 2017).

In data set [1] the test system is T1, Cc1cn([C@H]2C[C@H](O)[C@@H](COP(=O)(O)OP(=O)(O)O[C@H]3O[C@@H](C)[C@H](O)[C@@H](O)[C@H]3O)O2)c(=O)[nH]c1=O.
T1 construct: full-length (residues 1 to 377), 43 kDa, His6-tagged (C-terminal from pBAD33-earPPpu, N-terminal from pACYC-DUET for crystallization), expressed in E. coli; monomer
The data set is described as follows: Western blot quantification (anti-Arg-Rha) of EF-P rhamnosylation. The format is biochemical, Pseudomonas putida. The conditions noted are these: co-substrate unmodified P. putida EF-P 2.5 µM, 0.5 µM EarP, 100 mM NaPi pH 7.6, 30°C. From the text: Western blot quantification (anti-Arg-Rha) of EF-P rhamnosylation on EarPPpu (EF-P-arginine rhamnosyltransferase EarP) | when we measured the kinetics of the F191A^EarP and Y193A^EarP variants
On the technique in general: In western blotting, separated proteins are transferred to a membrane and probed.

For data set [2] the test system is unchanged. The data set is described as above. The format is biochemical, Pseudomonas putida. The following applies: co-substrate unmodified P. putida EF-P 2.5 µM, 100 mM NaPi pH 7.6, 30°C.
Data set [3] is described as follows: PcadBA::lacZ β-galactosidase, E. coli Δefp. The following applies: glycan lost; control: EF-PPpu coproduced with wild-type EarPPpu.
Data set [4] concerns the target T2, EarPPpu, EarP from Pseudomonas putida KT2440, purified His6-tagged protein (Pseudomonas putida KT2440, UniProt Q88LS1 2-377).
T2 construct: EarP, Pseudomonas putida KT2440, 43 kDa; domains are told as aa 1-153, 184-361 and 362-377; also called WT^EarP; source: E. coli LMG194 (pBAD33-earPPpu) or E. coli BL21(DE3) (pACYC-DUET-earPPpu), purified (Ni-NTA)
T2 sequence: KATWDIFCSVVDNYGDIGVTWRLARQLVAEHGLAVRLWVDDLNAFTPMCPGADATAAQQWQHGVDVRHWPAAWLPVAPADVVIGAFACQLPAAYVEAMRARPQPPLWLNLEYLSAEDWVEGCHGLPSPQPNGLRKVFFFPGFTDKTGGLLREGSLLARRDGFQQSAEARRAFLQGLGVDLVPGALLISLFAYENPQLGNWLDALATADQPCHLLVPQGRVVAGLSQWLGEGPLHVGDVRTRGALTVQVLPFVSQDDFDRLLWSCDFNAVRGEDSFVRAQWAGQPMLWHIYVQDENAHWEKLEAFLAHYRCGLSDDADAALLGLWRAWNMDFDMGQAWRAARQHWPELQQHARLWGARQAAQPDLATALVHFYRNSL
The data set is described as follows: NMR titration; 15N-labelled EF-P (150 µM unmodified or 41 µM rhamnosylated) titrated with unlabelled EarP to a 1:2 EF-P/EarP molar ratio, 1H-15N HSQC, 298 K, 100 mM NaPi pH 7.6, 50 mM NaCl, 5 mM DTT. The conditions noted are these: both partners purified.

Substrate in data set [5]: Cc1cn([C@H]2C[C@H](O)[C@@H](COP(=O)(O)OP(=O)(O)O[C@H]3O[C@@H](C)[C@H](O)[C@@H](O)[C@H]3O)O2)c(=O)[nH]c1=O
As to the kind of experiment: Western blot quantification (anti-Arg-Rha) of EF-P rhamnosylation. The format is biochemical, Pseudomonas putida. The following applies: co-substrate unmodified P. putida EF-P 2.5 µM, 0.1 µM EarP, 100 mM NaPi pH 7.6, 30°C, 20 s.

Setting [6] is: lowest-mass SEC fraction of a partly unfolded, aggregating variant.

The Km is the substrate concentration at which the rate is half of its maximum. A word on the kcat: it is the number of substrate molecules converted per active site and unit of time at saturation. As to “EarPPpu (EF-P-arginine rhamnosyltransferase EarP) (Pseudomonas putida KT2440; F191A)”, in data set [1], the Km was 810 µM and the kcat is 0.00017 s⁻¹.

Consider “EarPPpu (EF-P-arginine rhamnosyltransferase EarP) (Pseudomonas putida KT2440; Y193A)”, for which, in data set [1], the Km is 760 µM and the turnover number (kcat) stood at 0.00017 s⁻¹.

Consider “EarPPpu (EF-P-arginine rhamnosyltransferase EarP) (Pseudomonas putida KT2440; D274A)”, for which, in data set [2] (setting [6]), the Michaelis constant (Km) was determined as 206 µM and the kcat came to 0.0123 s⁻¹.

“EarPPpu (EF-P-arginine rhamnosyltransferase EarP) (Pseudomonas putida KT2440; F252A)”: in data set [2], the Km was 3400 µM.

B1: EF-PPpu (translation elongation factor EF-P): coproduction with inactive D13AEarP (protein)
parent chain: MKTGKELKPGTVLRIDNDPWLVQKAEFTKSGRNSAIMKTKLKNLLTGYKTETVYGADDKLDDVILDRKEATLSFINGDEYTFMDTTDYTMYELNAEDIEAVLPYIEEGMEDVCEAVFFEGRLVSVELPTTISRKVVYTENAARGDTSGKVMKPAKLANGTEISVADFIQIDEWIDIDTRDNSFKGRSKK
Turning to B1, the “other: EF-P translational rescue activity (PcadBA activation)” value in data set [3] was “abolishes”.

B2: rhamnosylated EF-PPpu (EF-P^Rha), purified (natural protein, Pseudomonas putida, UniProt Q88LS0 1-189, looked up)
chain: B1 parent chain
modifications: rhamnosyl-arginine at R32
notes: translation elongation factor EF-P, Pseudomonas putida, rhamnosylated on arginine 32; 15N-labelled for the NMR titration; also called modified EF-P; source: E. coli, cooverproduced with His6-tagged EarPPpu, purified
B2: in data set [4], the binding result was “binds”.

B3: EF-PPpu (translation elongation factor EF-P): coproduction with inactive D17AEarP (protein)
parent chain: B1 parent chain
Regarding B3, the “other: EF-P translational rescue activity (PcadBA activation)” value in data set [3] is “abolishes”.

B4: EF-PPpu (translation elongation factor EF-P): coproduction with inactive E273AEarP (protein)
parent chain: B1 parent chain
On to B4, for which the “other: EF-P translational rescue activity (PcadBA activation)” value in data set [3] is on record as “abolishes”.

B5: unmodified EF-PPpu, purified, tag-free (natural protein, Pseudomonas putida, UniProt Q88LS0 1-189, looked up)
chain: B1 parent chain
notes: translation elongation factor EF-P, Pseudomonas putida; 15N-labelled for the NMR titration (grown in M9 minimal medium); source: E. coli BL21(DE3) (pET-SUMO-efpPpu), purified (Ni-NTA, tag removed with His6-Ulp1)
With B5, the binding result in data set [4] is “binds”.

B6: EarPPpu (EF-P-arginine rhamnosyltransferase EarP) (Pseudomonas putida KT2440) (protein)
chain: MKATWDIFCSVVDNYGDIGVTWRLARQLVAEHGLAVRLWVDDLNAFTPMCPGADATAAQQWQHGVDVRHWPAAWLPVAPADVVIGAFACQLPAAYVEAMRARPQPPLWLNLEYLSAEDWVEGCHGLPSPQPNGLRKVFFFPGFTDKTGGLLREGSLLARRDGFQQSAEARRAFLQGLGVDLVPGALLISLFAYENPQLGNWLDALATADQPCHLLVPQGRVVAGLSQWLGEGPLHVGDVRTRGALTVQVLPFVSQDDFDRLLWSCDFNAVRGEDSFVRAQWAGQPMLWHIYVQDENAHWEKLEAFLAHYRCGLSDDADAALLGLWRAWNMDFDMGQAWRAARQHWPELQQHARLWGARQAAQPDLATALVHFYRNSL
notes: full-length (residues 1 to 377), 43 kDa, His6-tagged (C-terminal from pBAD33-earPPpu, N-terminal from pACYC-DUET for crystallization), expressed in E. coli; monomer
For B6, in data set [5], the Michaelis-Menten constant (Km) came to 53 µM and the kcat came to 0.583 s⁻¹.
